Results: publication PMC7430590 (bioRxiv, 2020)

Experiments:
[1] = target: Fc fusion protein of the RBD-SD1 region of SARS-CoV (SARS-CoV, strain not named, UniProt P59594); assay: ELISA
[2] = target: SARS-CoV-2 S protein-RBD-mFc (SARS-CoV-2, early reference sequence …, UniProt P0DTC2); assay: SPR
[3] = target: receptor binding domain (RBD; residues 319–541) of the SARS-CoV-2 spike (S) protein (SARS-CoV-2, UniProt P0DTC2); assay: crystal structure

B1: CV38–142 (antibody, V domains shown)
VH: EVQLVQSGAEVKKPGESLKISCQGSGYSFTSYWIGWVRQMPGKGLEWMGIIYPGESDTRYSSSFQGHVTISADKSISTAYLQWSSLKASDTAMYYCARIRGVYSSGWIGGDYWGQGTLVTVSS
VL: not shown
binding result [1]: binds

B2: CV07–209 (antibody, V domains shown)
VH: QVQLVESGGGLVKPGGSLRLSCAASGFTFSDYYMSWIRQAPGKGLEWVSYISSSVSTIYYADSVKGRFTISRDNAKNSLYLQMNSLRAEDTAVYYCARDGVIPPRFDYWGQGTLVTVSS
VL: not shown
Kd [2]: 6 pM

B3: CV07–270 Fab (Fab, V domains shown)
VH: QVQLVESGGGLVKPGGSLRLSCAASGFTFSDYYMTWIRQAPGKGLEWVSYISSSGSTIYYADSVKGRFTISRDNAKNSLYLQMNSLRAEDTAVYYCARARGSSGWYRIGTRWGNWFDPWGQGTLVTVSS
VL: QSALTQPASVSGSPGQSITISCTGTSSDVGGYNYVSWYQQHPGKAPKLMIYEVSNRPSGVSNRFSGSKSGNTASLTISGLQAEDEADYYCSSYTSSSNVVFGGGTMLTVL
binding result [3]: binds
